Measurements reported in patent publication US20220307010A1 (TWIST BIOSCIENCE, published 2022).
Positions count from the first letter of the chain named.

T1: TIGIT (T cell immunoreceptor with Ig and ITIM domains) (human, UniProt Q495A1 22-141, limits assumed)
T1 construct: also called hTIGIT; human TIGIT
T1 sequence (looked up): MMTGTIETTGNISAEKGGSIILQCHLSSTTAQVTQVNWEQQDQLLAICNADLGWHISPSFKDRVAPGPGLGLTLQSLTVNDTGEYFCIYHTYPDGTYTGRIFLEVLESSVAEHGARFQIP

T2: TIGIT (T cell immunoreceptor with Ig and ITIM domains) (human, UniProt Q495A1 22-141, limits assumed)
T2 construct: also called hTIGIT; human TIGIT
T2 sequence (looked up): T1 sequence (looked up)

B1: TIGIT-29-18 VHH-V5-His (VHH)
VHH: EVQLVESGGGLVQAGGSLRLSCAASGSTFSNYAMGWFRQAPGKEREFVSAINSSGSRTYYADSVKGRFTISADNAKNTVYLQMNSLKPEDTAVYYCAARLWGTWTAGDYDYWGQGTQVTVSS
notes: not shown: V5-His tag
B2: TIGIT-29-34 VHH-V5-His (VHH)
VHH: B1 VHH with S27F, S30R, A50S, N52S, G55S, Y59S
notes: not shown: V5-His tag
B3: TIGIT-29-22 VHH-V5-His (VHH)
VHH: B1 VHH with T28I, F29L, N31S, A33T, A50T, N52S, S53R, G55S, S56T
notes: not shown: V5-His tag
B4: TIGIT-30-15 VHH-V5-His (VHH)
VHH: EVQLVESGGGLVQAGGSLRLSCAASGFTFSGNWMGWFRQAPGKEREWVSGISSGGGRTYYADSVKGRFTISADNAKNTVYLQMNSLKPEDTAVYYCAADVWYGSTWRNWGQGTQVTVSS
notes: not shown: V5-His tag
B5: TIGIT-30-52 VHH-V5-His (VHH)
VHH: EVQLVESGGGLVQAGGSLRLSCAASGRTFSNYFMGWFRQAPGKERESVATVTWRDNITYYADSVKGRFTISADNAKNTVYLQMNSLKPEDTAVYYCASAGRWGQGTQVTVSS
notes: not shown: V5-His tag
B6: TIGIT-29-10 VHH-V5-His (VHH)
VHH: EVQLVESGGGLVQAGGSLRLSCAASGRTFSNYGMGWFRQAPGKEREFVSGISGSGGRTSYADSVKGRFTISADNAKNTVYLQMNSLKPEDTAVYYCAANLWYPVDRLNTGFNYWGQGTQVTVSS
notes: not shown: V5-His tag
B7: TIGIT-30-30 VHH-V5-His (VHH)
VHH: EVQLVESGGGLVQAGGSLRLSCAASGGTFSGRGMGWFRQAPGKEREWVSSVYIFGGSTYYADSVKGRFTISADNAKNTVYLQMNSLKPEDTAVYYCANSNKPKFDWGQGTQVTVSS
notes: not shown: V5-His tag
B8: TIGIT-30-20 VHH-V5-His (VHH)
VHH: EVQLVESGGGLVQAGGSLRLSCAASGPTFSIYDMGWFRQAPGKEREFVAVINWSRGSTFYADSVKGRFTISADNAKNTVYLQMNSLKPEDTAVYYCAAGVWSSLRHTAANWGQGTQVTVSS
notes: not shown: V5-His tag
B9: TIGIT-30-43 VHH-V5-His (VHH)
VHH: EVQLVESGGGLVQAGGSLRLSCAASGFTFSTSWMGWFRQAPGKERELVAARNSGGNTNYADSVKGRFTISADNAKNTVYLQMNSLKPEDTAVYYCAADVWYGSTWRNWGQGTQVTVSS
notes: not shown: V5-His tag
B10: TIGIT-30-01 VHH-V5-His (VHH)
VHH: B9 VHH with T28A, T31S, S32Y
notes: not shown: V5-His tag
B11: TIGIT-30-40 VHH-V5-His (VHH)
VHH: B9 VHH with T31G, S32N, L47W, A49V, A50G, R51I, N52S, N56S, N58H
notes: not shown: V5-His tag
B12: TIGIT-29-01 VHH-V5-His (VHH)
VHH: EVQLVESGGGLVQAGGSLRLSCAASGRTFSNYAMGWFRQAPGKEREFVAAITWSGTRTDYADSVKGRFTISADNAKNTVYLQMNSLKPEDTAVYYCAAAAWTIYEYDYWGQGTQVTVSS
notes: not shown: V5-His tag
B13: TIGIT-29-33 VHH-V5-His (VHH)
VHH: B12 VHH with R27F, T28I, N31T, F47L, A49S, W53R, T56I, R57T, D59Y
notes: not shown: V5-His tag
B14: TIGIT-29-12 VHH-V5-His (VHH)
VHH: B12 VHH with R27S, N31S, D59N, E105T, Y108S
notes: not shown: V5-His tag
B15: TIGIT-29-07 VHH-V5-His (VHH)
VHH: B12 VHH with R27S, T28I, A50T, T52S, W53R, S54G, D59N, E105A, D107N
notes: not shown: V5-His tag
B16: TIGIT-29-30 VHH-V5-His (VHH)
VHH: B12 VHH with R27F, N31S, T102R, I103Y, Y104S
notes: not shown: V5-His tag
B17: TIGIT-30-49 VHH-V5-His (VHH)
VHH: EVQLVESGGGLVQAGGSLRLSCAASGNIFSRYIMGWFRQAPGKEREWVAGISNGGTTKYADSVKGRFTISADNAKNTVYLQMNSLKPEDTAVYYCAQGWKIVPTNWGQGTQVTVSS
notes: not shown: V5-His tag
B18: TIGIT-29-06 VHH-V5-His (VHH)
VHH: EVQLVESGGGLVQAGGSLRLSCAASGGTFRSYVMGWFRQAPGKEREWVATINSSGSRTYYADSVKGRFTISADNAKNTVYLQMNSLKPEDTAVYYCAARPNYRDYEYWGQGTQVTVSS
notes: not shown: V5-His tag
B19: TIGIT-211-15 (antibody, V domains shown)
VH: EVQLLESGGGLVQPGGSLRLSCAASGFTFSSAAMSWVRQAPGKGLEWVSGISPSGGITTYADSVKGRFTISRDNSKNTLYLQMNSLRAEDTAVYYCASLSRGYWGQGTLVTVSS
VL: DIQMTQSPSSLSASVGDRVTITCQSSQSVYSNNELSWYQQKPGKAPKLLIYGTSYRYSGVPSRFSGSGSGTDFTLTISSLQPEDFATYYCSSWAGSRSGTVFGQGTKVEIK
B20: TIGIT-211-13 (antibody, V domains shown)
VH: EVQLLESGGGLVQPGGSLRLSCAASGFTFNKYPMMWVRQAPGKGLEWVSYISSSGSSTYYADSVKGRFTISRDNSKNTLYLQMNSLRAEDTAVYYCARVIAAAGAFDYWGQGTLVTVSS
VL: DIQMTQSPSSLSASVGDRVTITCRASQSIREYLHWYQQKPGKAPKLLIYFGSELRKGVPSRFSGSGSGTDFTLTISSLQPEDFATYYCGQGVLWPATFGQGTKVEIK
B21: TIGIT-211-95 (antibody, V domains shown)
VH: EVQLLESGGGLVQPGGSLRLSCAASGFTFPKYGMAWVRQAPGKGLEWVSTISSGGGYTYYPDSVKGRFTISRDNSKNTLYLQMNSLRAEDTAVYYCARDTYLHFDYWGQGTLVTVSS
VL: DIQMTQSPSSLSASVGDRVTITCRASQGVRTSLAWYQQKPGKAPKLLIYAKNNRPSGVPSRFSGSGSGTDFTLTISSLQPEDFATYYCQQSYSAPYTFGQGTKVEIK
B22: TIGIT-211-116 (antibody, V domains shown)
VH: EVQLLESGGGLVQPGGSLRLSCAASGFTFSRYFMGWVRQAPGKGLEWVSAISGSGGNTYYADSVKGRFTISRDNSKNTLYLQMNSLRAEDTAVYYCARVWRNHLDYWGQGTLVTVSS
VL: DIQMTQSPSSLSASVGDRVTITCRASQTIERRLNWYQQKPGKAPKLLIYHDNKRPSGVPSRFSGSGSGTDFTLTISSLQPEDFATYYCQQGYTLPWTFGQGTKVEIK
B23: TIGIT-211-77 (antibody, V domains shown)
VH: EVQLLESGGGLVQPGGSLRLSCAASGFTFGNYAMAWVRQAPGKGLEWVSSIWPSGGQTWYADSVKGRFTISRDNSKNTLYLQMNSLRAEDTAVYYCAKGGTSFDYWGQGTLVTVSS
VL: DIQMTQSPSSLSASVGDRVTITCRASQSVRSYLNWYQQKPGKAPKLLIYAASSLYSGVPSRFSGSGSGTDFTLTISSLQPEDFATYYCQQYASVPVTFGQGTKVEIK
B24: TIGIT-211-98 (antibody, V domains shown)
VH: EVQLLESGGGLVQPGGSLRLSCAASGFTFETYAMSWVRQAPGKGLEWVSVISGSGGRPNYADSVKGRFTISRDNSKNTLYLQMNSLRAEDTAVYYCAREGLWAFDYWGQGTLVTVSS
VL: DIQMTQSPSSLSASVGDRVTITCRASHFIGSLLSWYQQKPGKAPKLLIYETSKLASGVPSRFSGSGSGTDFTLTISSLQPEDFATYYCQQSYSYPRTFGQGTKVEIK
B25: TIGIT-211-93 (antibody, V domains shown)
VH: EVQLLESGGGLVQPGGSLRLSCAASGFTFSRYFMGWVRQAPGKGLEWVSEISPSGKKKYYADSVKGRFTISRDNSKNTLYLQMNSLRAEDTAVYYCAKSSFDKYNFDYWGQGTLVTVSS
VL: DIQMTQSPSSLSASVGDRVTITCSASQDINKYLNWYQQKPGKAPKLLIYHTSRLQSGVPSRFSGSGSGTDFTLTISSLQPEDFATYYCQQFAYFPATFGQGTKVEIK

Each binder was assayed against T1, TIGIT (T cell immunoreceptor with Ig …) (assay: SPR, VHH-V5-His).

Row | koff [s⁻¹] | kon [M⁻¹ s⁻¹] | Kd [nM] | Binder
1 | 0.007 | 20000 | – | B1
2 | 0.03 | 30000 | – | B2
3 | 0.003 | 6000 | – | B3
4 | 0.004 | 20000 | – | B4
5 | 0.1 | 30000 | 4240 | B5
6 | 0.003 | 10000 | – | B6
7 | 0.006 | 10000 | 387 | B7
8 | 0.002 | 10000 | – | B8
9 | 0.008 | 70000 | – | B9
10 | 0.08 | 10000 | – | B10
11 | 0.006 | 30000 | – | B11
12 | 0.01 | 30000 | – | B12
13 | 0.04 | 20000 | 1520 | B13
14 | 0.1 | 10000 | – | B14
15 | 0.004 | 8000 | – | B15
16 | 0.08 | 300000 | – | B16
17 | 0.08 | 90000 | – | B17
18 | 0.02 | – | 433000 | B18

Each binder was assayed against T2, TIGIT (T cell immunoreceptor with Ig …) (assay: ELISA).

Row | ELISA | Binder
19 | 11.3 | B19
20 | 15 | B20

Each binder was assayed against T2, TIGIT (T cell immunoreceptor with Ig …) (assay: SPR kinetics).

Row | Kd [nM] | koff [s⁻¹] | kon [M⁻¹ s⁻¹] | Binder
21 | 355 | 0.0756 | 213000 | B21
22 | 269000 | 0.105 | 389 | B22
23 | 683 | 0.0417 | 61000 | B23
24 | 301 | 0.00712 | 23600 | B19
25 | 574000 | 0.098 | 171 | B24
26 | 221 | 0.326 | 1.48e+06 | B20
27 | 1240 | 0.0281 | 22700 | B25
